These results are taken from IntAct's records for PubMed 25766235.

B1: Regulator of G-protein signaling 2 (Homo sapiens), P41220-1 (parent)
chain: MQSAMFLAVQHDCRPMDKSAGSGHKSEEKREKMKRTLLKDWKTRLSYFLQNSSTPGKPKTGKKSKQQAFIKPSPEEAQLWSEAFDELLASKYGLAAFRAFLKSEFCEENIEFWLACEDFKKTKSPQKLSSKARKIYTDFIEKEAPKEINIDFQTKTLIAQNIQEATSGCFTTAQKRVYSLMENNSYPRFLESEFYQDLCKKPQITTEPHAT
partner: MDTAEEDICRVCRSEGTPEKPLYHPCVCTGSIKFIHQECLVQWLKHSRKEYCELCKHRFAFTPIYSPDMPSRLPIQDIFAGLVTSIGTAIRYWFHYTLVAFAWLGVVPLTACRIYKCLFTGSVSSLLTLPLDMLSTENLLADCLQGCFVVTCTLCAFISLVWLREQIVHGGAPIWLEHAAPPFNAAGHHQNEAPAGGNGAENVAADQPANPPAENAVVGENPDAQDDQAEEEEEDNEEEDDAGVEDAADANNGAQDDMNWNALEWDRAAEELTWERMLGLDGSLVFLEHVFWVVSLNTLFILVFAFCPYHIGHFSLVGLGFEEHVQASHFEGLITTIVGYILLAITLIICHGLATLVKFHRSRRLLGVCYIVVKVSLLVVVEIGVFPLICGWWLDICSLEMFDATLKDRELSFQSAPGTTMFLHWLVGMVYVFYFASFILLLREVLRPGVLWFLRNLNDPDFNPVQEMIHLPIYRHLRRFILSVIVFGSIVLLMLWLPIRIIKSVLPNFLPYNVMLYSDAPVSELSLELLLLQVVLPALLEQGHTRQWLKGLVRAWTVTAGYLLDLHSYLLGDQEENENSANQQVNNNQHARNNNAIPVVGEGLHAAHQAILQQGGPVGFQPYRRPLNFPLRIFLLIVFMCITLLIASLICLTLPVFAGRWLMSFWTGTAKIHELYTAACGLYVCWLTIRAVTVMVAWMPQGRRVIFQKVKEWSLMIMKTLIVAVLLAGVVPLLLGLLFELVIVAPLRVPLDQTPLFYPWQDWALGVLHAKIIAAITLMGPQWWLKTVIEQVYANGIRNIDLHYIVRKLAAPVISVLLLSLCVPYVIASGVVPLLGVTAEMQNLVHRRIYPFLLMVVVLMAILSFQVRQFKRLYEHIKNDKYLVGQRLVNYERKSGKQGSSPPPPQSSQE

This experiment covers variants of B1. The conditions noted are these: with marh6_human MARCHF6, O60337.
In the case of M1P, the “effect of a mutation on the interaction” value is “disrupting interaction strength”.
